In US20220273759A1, “PHARMACEUTICAL ASSOCIATION FOR CONVERTING A NEOPLASTIC CELL INTO A NON-NEOPLASTIC CELL AND USES THEREOF” (HISTIDE AG, priority 2015, published 2022):
Where no end group is shown, it is not given here.

Assays:
[1] = system: neoplastic cells (osteosarcoma cells); experiment: Immunofluorescence visualization of neoplastic cells cultured on a polymer scaffold covalently modified with a GFR-binding compound and a RGD peptide; format: cell-based; details: polymer scaffold covalently modified with a mixture of GFR-binding compound and RGD peptide; after 24 hours of culture
Method: (b) Immunofluorescence visualization of a neoplastic cell (osteosarcoma cells) after silencing integrins α3β1 by using shRNAs, after 24 hours of culture on a polymer scaffold covalently grafted with RGD peptides. […] The actin filaments were immunostained by using Alexa 488-phalloidin. The focal adhesions were represented by immunostaining with anti-vinculin. The nucleus was stained with DAPI and is represented by a circle in the center of the cell. Scale bar: 5 μm. (c) Immunofluorescence visualization of neoplastic cells cultured on a polymer scaffold covalently modified with a mixture comprising a GFR-binding compound as defined herein (SEQ ID NO: 2) and a RGD peptide, after 24 hours of culture. Scale bar: 500 μm. […] The actin filaments were immunostained by using Alexa 488-phalloidin. The focal adhesions were represented by immunostaining with anti-vinculin. The nucleus was stained with DAPI and is represented by a circle in the center of the cell.

[2] = Stability of non-covalent association (release of FITC-labelled GFR-binding compound from carrier); format: physicochemical; details: after 3, 7 or 10 days
Method: Non-covalent associations of the bioactive carriers were performed under atmospheric conditions (air) at room temperature (about 22° C.). The non-covalent association was carried out using a mixture of GFR-binding compound of SEQ ID NO: 9 (concentration of 1×10^−3 M) with the apatite ceramics or a mixture of GFR-binding compound of SEQ ID NO: 10 (concentration of 1×10^−3 M) with the type-I collagen sponge. The non-covalent pharmaceutical associations were characterized by covalently associating fluorescent GFR-binding compounds of SEQ ID NO: 9 and 10 (covalently bound to fluorescein isothiocyanate (FITC), FIG. 1).

Substance | morphology of neoplastic cells (immunofluorescence: actin, vinculin, DAPI) [1] | release of GFR-binding compounds from the carrier [2]
SEQ ID NO: 2: GFR-binding compound as defined herein, covalently grafted on a polymer scaffold in a mixture with a RGD peptide (YVPKPSSAPTKLNAISTLYF; also: covalently grafted on a polymer scaffold) | Spheroid-like structures of neoplastic cells become predominant | 
SEQ ID NO: 9: GFR-binding compound of the sequence listing, non-covalently associated with apatite ceramics; sequence not shown in this part (AVPKASSAPTKLSAISMLYL; Non-cyclic GFR-binding peptide) |  | no significant release
SEQ ID NO: 10: GFR-binding compound of the sequence listing, non-covalently associated with type-I collagen sponge; sequence not shown in this part (KVGKASSVPTKLSAISTLYL; Non-cyclic GFR-binding peptide) |  | no significant release
